Data published in US20140335077A1, “Compositions and Methods for the Treatment of Cancer Using IGF-IR Antagonists and MAPK/ERK Inhibitors” (priority 2013, published 2014).

Legend:
Assay type in all cases: cell-based
SKMel5 = assay: PrestoBlue cell viability, anti-IGF-1R antibody with U0126, SKMel5 (melanoma); conditions: 48 h
Method: (§1) Cells were incubated in 96 well tissue culture plates and cell viability was measured by PrestoBlue cell viability assay (Invitrogen, CA, USA) according to manufacturer's instructions. Fluorescence was measured with excitation at 560 nm and emission at 590 nm. Cell number was calculated from standard curves of fluorescence measurements from known numbers of cells. Triplicate cultures were performed on all experiments.
(§2) The effects of anti-IGF-1R antibodies/MEK inhibitor combination treatment on viability of different types of tumor cells were investigated using PrestoBlue cell viability assay (Invitrogen, CA, USA) according to manufacturer's instructions. (Table 3).
(§3) Cells were incubated in serum free medium for 12 h followed by pretreatment for 60 min without or with 0.5, 1, 3 or 5 μM of the ERK inhibitor U0126, and then treated without or with 100 ng/ml anti-IGF-1R antibodies (Figitumumab or αIR-3 (Calbiochem, US). Cells were incubated in 96 well tissue culture plates for 48 hours and cell viability was measured by PrestoBlue cell viability assay. Fluorescence was measured with excitation at 560 nm and emission at 590 nm. Cell number was calculated from standard curves of fluorescence measurements from known numbers of cells. Triplicate cultures were performed on all experiments. The inhibition induced by anti-IGF-1R antibodies treated cells was calculated as percentage of untreated cells.

SKMel28 = assay: PrestoBlue cell viability, anti-IGF-1R antibody with U0126, SKMel28 (melanoma); conditions: 48 h
Method: as §1, §2, §3

MCF7 = assay: PrestoBlue cell viability, anti-IGF-1R antibody with U0126, MCF7 (breast carcinoma); conditions: 48 h
Method: as §1, §2, §3

MDA-MB-231 = assay: PrestoBlue cell viability, anti-IGF-1R antibody with U0126, MDA-MB-231 (breast carcinoma); conditions: MDA-MB-231 cells, 48 h
Method: as §1, §2, §3

OMM 2.3 = assay: PrestoBlue cell viability, anti-IGF-1R antibody with U0126, OMM 2.3 (liver metastasis of uveal melanoma); conditions: OMM 2.3 cells, 48 h
Method: as §1, §2, §3

OMM 2.5 = assay: PrestoBlue cell viability, anti-IGF-1R antibody with U0126, OMM 2.5 (liver metastasis of uveal melanoma); conditions: OMM 2.5 cells, 48 h
Method: as §1, §2, §3

Colo 205 = assay: PrestoBlue cell viability, anti-IGF-1R antibody with U0126, Colo 205 (colon carcinoma); conditions: Colo 205 cells, 48 h
Method: as §1, §2, §3

PC-3 = assay: PrestoBlue cell viability, anti-IGF-1R antibody with U0126, PC-3 (prostate carcinoma); conditions: PC-3 cells, 48 h
Method: as §1, §2, §3

DU-145 = assay: PrestoBlue cell viability, anti-IGF-1R antibody with U0126, DU-145 (prostate carcinoma); conditions: DU-145 cells, 48 h
Method: as §1, §2, §3

A549 = assay: PrestoBlue cell viability, anti-IGF-1R antibody with U0126, A549 (lung cancer); conditions: 48 h
Method: as §1, §2, §3

H1703 = assay: PrestoBlue cell viability, anti-IGF-1R antibody with U0126, H1703 (lung cancer); conditions: 48 h
Method: as §1, §2, §3

OCM-1 = assay: PrestoBlue cell viability, anti-IGF-1R antibody with U0126, OCM-1 (uveal melanoma); conditions: OCM-1 cells, 48 h
Method: as §1, §2, §3

SK-OV-3 = assay: PrestoBlue cell viability, anti-IGF-1R antibody with U0126, SK-OV-3 (ovarian carcinoma); conditions: SK-OV-3 cells, 48 h
Method: as §1, §2, §3

IGF-1R = biological target: T1, IGF-1R (Homo sapiens, UniProt P08069); assay: IGF-1R downregulation in ES cell lines (western blot)
T1 construct: all the ES cell lines tested expressed IGF-1R; endogenous in cells; host or cells: Ewing's sarcoma cell lines SKES, RDES, CADO, A673, SKNMC
Method: FIG. 2A-FIG. 2D. […] (A) Cells incubated in serum free medium for 12 h were treated with 0, 0.1 or 1 μg/ml CP for 24 h. Protein lysates were analyzed by WB for IGF-1R and GAPDH as a loading control. […] Protein lysates were analyzed by WB for IGF-1R and GAPDH as a loading control. Signals were quantified by densitometry, normalized to GAPDH and expressed as a percentage of the IGF-1R at 0 h. Data correspond to the mean±SEM from three independent experiments. […] IGF-1R was immunoprecipitated from lysates and analyzed by WB (IB) for ubiquitination (Ub) and IGF-1R as a loading control. Molecular weight markers in KDa are indicated to the left of the panels. (D) β-Arrestin1 (β-arr1) was immunoprecipitated from cell lysates prepared as for (C). Immunoprecipitated proteins were analyzed by WB for IGF-1R. The whole lysates were analyzed by WB for GAPDH as a loading control.
Appropriate primary antibody was incubated overnight at 4° C.
Given that β-arrestin1 (β-arr1) is a key protein involved in IGF-1R ubiquitination, we also investigated ligand induced IGF-1R/β-arr1 association.

[1] = U0126 0 μM (60 min pretreatment)
[2] = U0126 0.5 μM (60 min pretreatment)
[3] = U0126 1 μM (60 min pretreatment)
[4] = U0126 3 μM (60 min pretreatment)
[5] = U0126 5 μM (60 min pretreatment)

B1: CP-751,871: anti-IGF-1R antibody figitumumab (Pfizer), IGF-1R antagonist (antibody, chains of the INN, looked up)
heavy: EVQLLESGGGLVQPGGSLRLSCTASGFTFSSYAMNWVRQAPGKGLEWVSAISGSGGTTFYADSVKGRFTISRDNSRTTLYLQMNSLRAEDTAVYYCAKDLGWSDSYYYYYGMDVWGQGTTVTVSSASTKGPSVFPLAPCSRSTSESTAALGCLVKDYFPEPVTVSWNSGALTSGVHTFPAVLQSSGLYSLSSVVTVPSSNFGTQTYTCNVDHKPSNTKVDKTVERKCCVECPPCPAPPVAGPSVFLFPPKPKDTLMISRTPEVTCVVVDVSHEDPEVQFNWYVDGVEVHNAKTKPREEQFNSTFRVVSVLTVVHQDWLNGKEYKCKVSNKGLPAPIEKTISKTKGQPREPQVYTLPPSREEMTKNQVSLTCLVKGFYPSDIAVEWESNGQPENNYKTTPPMLDSDGSFFLYSKLTVDKSRWQQGNVFSCSVMHEALHNHYTQKSLSLSPG
light: DIQMTQFPSSLSASVGDRVTITCRASQGIRNDLGWYQQKPGKAPKRLIYAASRLHRGVPSRFSGSGSGTEFTLTISSLQPEDFATYYCLQHNSYPCSFGQGTKLEIKRTVAAPSVFIFPPSDEQLKSGTASVVCLLNNFYPREAKVQWKVDNALQSGNSQESVTEQDSKDSTYSLSSTLTLSKADYEKHKVYACEVTHQGLSSPVTKSFNRGEC
- Percentage inhibition of antibody treated cells (100 ng/ml) (SKMel5; [1]): 22%
- Percentage inhibition of antibody treated cells (100 ng/ml) (SKMel5; [2]): 30%
- Percentage inhibition of antibody treated cells (100 ng/ml) (SKMel5; [3]): 35%
- Percentage inhibition of antibody treated cells (100 ng/ml) (SKMel5; [4]): 39%
- Percentage inhibition of antibody treated cells (100 ng/ml) (SKMel5; [5]): 42%
- Percentage inhibition of antibody treated cells (100 ng/ml) (SKMel28; [1]): 5%
- Percentage inhibition of antibody treated cells (100 ng/ml) (SKMel28; [2]): 15%
- Percentage inhibition of antibody treated cells (100 ng/ml) (SKMel28; [3]): 17%
- Percentage inhibition of antibody treated cells (100 ng/ml) (SKMel28; [4]): 25%
- Percentage inhibition of antibody treated cells (100 ng/ml) (SKMel28; [5]): 29%
- Percentage inhibition of antibody treated cells (100 ng/ml) (MCF7; [1]): 15%
- Percentage inhibition of antibody treated cells (100 ng/ml) (MCF7; [2]): 18%
- Percentage inhibition of antibody treated cells (100 ng/ml) (MCF7; [3]): 25%
- Percentage inhibition of antibody treated cells (100 ng/ml) (MCF7; [4]): 18%
- Percentage inhibition of antibody treated cells (100 ng/ml) (MCF7; [5]): 33%
- Percentage inhibition of antibody treated cells (100 ng/ml) (MDA-MB-231; [1]): 8%
- Percentage inhibition of antibody treated cells (100 ng/ml) (MDA-MB-231; [2]): 12%
- Percentage inhibition of antibody treated cells (100 ng/ml) (MDA-MB-231; [3]): 15%
- Percentage inhibition of antibody treated cells (100 ng/ml) (MDA-MB-231; [4]): 22%
- Percentage inhibition of antibody treated cells (100 ng/ml) (MDA-MB-231; [5]): 32%
- Percentage inhibition of antibody treated cells (100 ng/ml) (OMM 2.3; [1]): 12%
- Percentage inhibition of antibody treated cells (100 ng/ml) (OMM 2.3; [2]): 35%
- Percentage inhibition of antibody treated cells (100 ng/ml) (OMM 2.3; [3]): 45%
- Percentage inhibition of antibody treated cells (100 ng/ml) (OMM 2.3; [4]): 65%
- Percentage inhibition of antibody treated cells (100 ng/ml) (OMM 2.3; [5]): 97%
- Percentage inhibition of antibody treated cells (100 ng/ml) (OMM 2.5; [1]): 7%
- Percentage inhibition of antibody treated cells (100 ng/ml) (OMM 2.5; [2]): 33%
- Percentage inhibition of antibody treated cells (100 ng/ml) (OMM 2.5; [3]): 65%
- Percentage inhibition of antibody treated cells (100 ng/ml) (OMM 2.5; [4]): 87%
- Percentage inhibition of antibody treated cells (100 ng/ml) (OMM 2.5; [5]): 89%
- Percentage inhibition of antibody treated cells (100 ng/ml) (Colo 205; [1]): 21%
- Percentage inhibition of antibody treated cells (100 ng/ml) (Colo 205; [2]): 28%
- Percentage inhibition of antibody treated cells (100 ng/ml) (Colo 205; [3]): 34%
- Percentage inhibition of antibody treated cells (100 ng/ml) (Colo 205; [4]): 45%
- Percentage inhibition of antibody treated cells (100 ng/ml) (Colo 205; [5]): 67%
- Percentage inhibition of antibody treated cells (100 ng/ml) (PC-3; [1]): 22%
- Percentage inhibition of antibody treated cells (100 ng/ml) (PC-3; [2]): 24%
- Percentage inhibition of antibody treated cells (100 ng/ml) (PC-3; [3]): 32%
- Percentage inhibition of antibody treated cells (100 ng/ml) (PC-3; [4]): 45%
- Percentage inhibition of antibody treated cells (100 ng/ml) (PC-3; [5]): 52%
- Percentage inhibition of antibody treated cells (100 ng/ml) (DU-145; [1]): 18%
- Percentage inhibition of antibody treated cells (100 ng/ml) (DU-145; [2]): 22%
- Percentage inhibition of antibody treated cells (100 ng/ml) (DU-145; [3]): 34%
- Percentage inhibition of antibody treated cells (100 ng/ml) (DU-145; [4]): 54%
- Percentage inhibition of antibody treated cells (100 ng/ml) (DU-145; [5]): 77%
- Percentage inhibition of antibody treated cells (100 ng/ml) (A549; [1]): 40%
- Percentage inhibition of antibody treated cells (100 ng/ml) (A549; [2]): 56%
- Percentage inhibition of antibody treated cells (100 ng/ml) (A549; [3]): 77%
- Percentage inhibition of antibody treated cells (100 ng/ml) (A549; [4]): 88%
- Percentage inhibition of antibody treated cells (100 ng/ml) (A549; [5]): 98%
- Percentage inhibition of antibody treated cells (100 ng/ml) (H1703; [1]): 10%
- Percentage inhibition of antibody treated cells (100 ng/ml) (H1703; [2]): 15%
- Percentage inhibition of antibody treated cells (100 ng/ml) (H1703; [3]): 25%
- Percentage inhibition of antibody treated cells (100 ng/ml) (H1703; [4]): 28%
- Percentage inhibition of antibody treated cells (100 ng/ml) (H1703; [5]): 32%
- Percentage inhibition of antibody treated cells (100 ng/ml) (OCM-1; [1]): 22%
- Percentage inhibition of antibody treated cells (100 ng/ml) (OCM-1; [2]): 28%
- Percentage inhibition of antibody treated cells (100 ng/ml) (OCM-1; [3]): 35%
- Percentage inhibition of antibody treated cells (100 ng/ml) (OCM-1; [4]): 46%
- Percentage inhibition of antibody treated cells (100 ng/ml) (OCM-1; [5]): 55%
- Percentage inhibition of antibody treated cells (100 ng/ml) (SK-OV-3; [1]): 17%
- Percentage inhibition of antibody treated cells (100 ng/ml) (SK-OV-3; [2]): 25%
- Percentage inhibition of antibody treated cells (100 ng/ml) (SK-OV-3; [3]): 35%
- Percentage inhibition of antibody treated cells (100 ng/ml) (SK-OV-3; [4]): 55%
- Percentage inhibition of antibody treated cells (100 ng/ml) (SK-OV-3; [5]): 67%
- IGF-1R downregulation (IGF-1R; 100 ng/ml or 1 μg/ml, 24 h, serum starved, all ES cell lines): downregulate IGF-1R in a dose dependent manner
- Rate of receptor degradation (IGF-1R; A673 cells, time-response): very fast
- Receptor degradation compared with IGF-1 (time-response) (IGF-1R; SKES, RDES, CADO and SKNMC, molar concentration approximately 10 fold less than IGF-1): more efficient at inducing receptor degradation
